# Assay results taken from paper PMC10144703, “Molecular Mechanism of Sirtuin 1 Inhibition by Human Immunodeficiency Virus 1 Tat Protein” (Life, 2023).
# Target: human full-length Sirt1 (human) (UniProt Q96EB6)
# Sequence (Q96EB6 whole entry): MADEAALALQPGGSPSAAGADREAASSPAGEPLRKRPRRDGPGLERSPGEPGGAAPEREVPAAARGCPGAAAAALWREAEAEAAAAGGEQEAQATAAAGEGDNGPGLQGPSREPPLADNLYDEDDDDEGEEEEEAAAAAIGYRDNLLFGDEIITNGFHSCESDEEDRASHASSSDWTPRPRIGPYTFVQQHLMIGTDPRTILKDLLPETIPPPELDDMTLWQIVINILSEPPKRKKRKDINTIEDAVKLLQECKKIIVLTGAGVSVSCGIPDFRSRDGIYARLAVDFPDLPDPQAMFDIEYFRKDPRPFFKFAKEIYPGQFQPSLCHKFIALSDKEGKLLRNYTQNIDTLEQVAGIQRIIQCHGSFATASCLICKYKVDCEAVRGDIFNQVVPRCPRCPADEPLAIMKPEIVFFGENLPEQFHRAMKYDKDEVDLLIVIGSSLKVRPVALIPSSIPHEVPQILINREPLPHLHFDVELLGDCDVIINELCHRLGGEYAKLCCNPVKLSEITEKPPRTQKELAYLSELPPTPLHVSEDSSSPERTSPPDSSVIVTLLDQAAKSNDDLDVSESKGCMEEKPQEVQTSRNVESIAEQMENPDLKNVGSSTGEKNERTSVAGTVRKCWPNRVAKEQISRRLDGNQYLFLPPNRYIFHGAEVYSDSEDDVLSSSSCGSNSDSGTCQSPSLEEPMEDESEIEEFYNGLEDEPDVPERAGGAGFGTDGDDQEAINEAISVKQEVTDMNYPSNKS
Substance,inhibition of fl-Sirt1 in the FdL assay at 100 µM FdL-1; IC50,inhibition of fl-Sirt1 in the FdL assay at 100 µM FdL-1; potency (IC50)
Tat-Cys^−-(1–63) (from UniProt P12506 1-63) (domain or fragment),10 µM,–
Tat-Cys^−-(21–63) (from UniProt P12506 21-63) (domain or fragment),–,30 µM
